Reference: patent US20180155451A1 (published 2018)

T1: FcγRIIb extracellular domain with C-terminal His tag (human, UniProt P31994 43-217)
T1 construct: extracellular domain; also called 2b; FcgRIIb
T1 sequence (looked up): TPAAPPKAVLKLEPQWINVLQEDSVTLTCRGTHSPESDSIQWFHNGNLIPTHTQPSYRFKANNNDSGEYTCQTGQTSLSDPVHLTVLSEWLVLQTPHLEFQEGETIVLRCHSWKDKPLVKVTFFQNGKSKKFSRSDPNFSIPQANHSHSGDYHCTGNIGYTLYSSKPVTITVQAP

T2: FcγRIIa H (human, UniProt P12318 34-217)
T2 construct: extracellular domain; also called FcγRIIa type H; 2aH
T2 sequence (looked up): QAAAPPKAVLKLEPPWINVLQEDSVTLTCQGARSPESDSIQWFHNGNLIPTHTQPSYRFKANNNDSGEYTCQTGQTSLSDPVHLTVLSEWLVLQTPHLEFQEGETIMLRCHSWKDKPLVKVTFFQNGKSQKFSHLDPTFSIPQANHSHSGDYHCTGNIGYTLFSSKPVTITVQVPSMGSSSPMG

T3: FcγRIIb (human, UniProt P31994 43-217)
T3 construct: extracellular domain; also called 2b
T3 sequence (looked up): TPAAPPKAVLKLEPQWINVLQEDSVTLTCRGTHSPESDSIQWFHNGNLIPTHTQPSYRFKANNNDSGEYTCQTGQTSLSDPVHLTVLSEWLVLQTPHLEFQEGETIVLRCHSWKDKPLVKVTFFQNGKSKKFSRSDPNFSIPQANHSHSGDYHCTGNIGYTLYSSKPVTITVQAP


Legend:
[1] = target: T4, FcγRIIIa extracellular domain with C-terminal His tag (human, UniProt P08637 17-208); test: SPR; He/Con_3a over He/Con_2b (FcγRIIb)
T4 construct: extracellular domain; also called 3a; FcgRIIIa

[2] = target: T4, FcγRIIIa extracellular domain with …; test: SPR, relative to GpH7-A5/GpH7-B3/GpL16-k0
[3] = target: T1, FcγRIIb extracellular domain with …; test: SPR, relative to GpH7-A5/GpH7-B3/GpL16-k0
FcγRIIa H [4] = target: T2, FcγRIIa H; test: SPR; He/Con_2aH divided by He/Con_2b (FcγRIIb)
Protocol: (§1) The heterodimerized antibodies He Abs in which one of the H chains was introduced with an alteration were assayed for their binding activities to each activating FcγR and inhibitory FcγR according to the method described in Example 4. […] The activating FcγRs in FIGS. 26, 27, 28, and 29 are FcγRIa, FcγRIIa (R), FcγRIIa (H), and FcγRIIIa, respectively.
(§2) Analysis of interaction between objective antibody and the FcγR was carried out using Biacore T100 (GE Healthcare). HBS-EP+ (GE Healthcare) was used as the running buffer, and the measurement temperature was set to 25° C. Chips produced by immobilizing the antigen peptide by the amine coupling method to a Series S Sencor Chip CM5 (GE Healthcare), or alternatively, chips produced by allowing preliminarily biotinylated antigen peptides to interact with and immobilize onto a Series S Sensor Chip SA (certified) (GE Healthcare) were used. Antibodies of interest were captured onto an antigen peptide-immobilized chip, and allowed to interact to each FcγR diluted with running buffer. To regenerate and repeatedly use the chip, the antibodies captured on the chip were washed off by reacting 10 mM glycine-HCl, pH 1.5.

FcγRIIa H [5] = target: T2, FcγRIIa H; test: SPR (Biacore), relative binding vs GpH7-A5/GpH7-B3/GpL16-k0
Protocol: as §1, §2

FcγRIIb = target: T3, FcγRIIb; test: as above
Protocol: as §1, §2

T4 sequence (P08637 17-208): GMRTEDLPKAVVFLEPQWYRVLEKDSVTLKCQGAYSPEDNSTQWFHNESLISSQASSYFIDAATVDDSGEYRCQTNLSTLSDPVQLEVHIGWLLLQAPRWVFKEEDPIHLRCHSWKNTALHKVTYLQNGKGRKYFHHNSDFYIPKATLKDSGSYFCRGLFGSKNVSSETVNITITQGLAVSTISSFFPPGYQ

| Binder | He_3a/2b (IIIa/IIb) [1] [ratio] | He/Con_3a [2] [control=100] | He/Con_2b [3] [control=100] | He_2aH/2b (IIaH/IIb) (FcγRIIa H [4]) [ratio] | He/Con_2aH (FcγRIIa H [5]) | He/Con_2b (FcγRIIb) |
| --- | --- | --- | --- | --- | --- | --- |
| GpH7-A5/GpH7-B3 variant S267_01G/GpL16-k0 (antibody, human IgG1, kappa, heterodimerized IgG1, mutation in one H chain only; also called He Ab) heavy 1: not shown heavy 2: not shown light: DIVMTQSPLSLPVTPGEPASISCQASESLVHSNRNTYLHWYLQKPGQSPQLLIYKVSNRFSGVPDRFSGSGSGTDFTLKISRVEAEDVGVYYCSQNTHVPPTFGQGTKVEIERTVAAPSVFIFPPSDEQLKSGTASVVCLLNNFYPREAKVQWKVDNALQSGNSQESVTEQDSKDSTYSLSSTLTLSKADYEKHKVYACEVTHQGLSSPVTKSFNRGEC | – | – | – | 0.68 | 71.3 % of control He Ab (=100) | 105 % of control He Ab (=100) |
| GpH7-A5/GpH7-B3 variant H268_01G/GpL16-k0 (antibody, human IgG1, kappa, heterodimerized IgG1, mutation in one H chain only; also called He Ab) heavy 1: not shown heavy 2: not shown light: DIVMTQSPLSLPVTPGEPASISCQASESLVHSNRNTYLHWYLQKPGQSPQLLIYKVSNRFSGVPDRFSGSGSGTDFTLKISRVEAEDVGVYYCSQNTHVPPTFGQGTKVEIERTVAAPSVFIFPPSDEQLKSGTASVVCLLNNFYPREAKVQWKVDNALQSGNSQESVTEQDSKDSTYSLSSTLTLSKADYEKHKVYACEVTHQGLSSPVTKSFNRGEC | – | – | – | 0.69 | 99.2 % of control He Ab (=100) | 144 % of control He Ab (=100) |
| GpH7-A5/GpH7-B3 variant H268_18N/GpL16-k0 (antibody, human IgG1, kappa, heterodimerized IgG1, mutation in one H chain only; also called He Ab) heavy 1: not shown heavy 2: not shown light: DIVMTQSPLSLPVTPGEPASISCQASESLVHSNRNTYLHWYLQKPGQSPQLLIYKVSNRFSGVPDRFSGSGSGTDFTLKISRVEAEDVGVYYCSQNTHVPPTFGQGTKVEIERTVAAPSVFIFPPSDEQLKSGTASVVCLLNNFYPREAKVQWKVDNALQSGNSQESVTEQDSKDSTYSLSSTLTLSKADYEKHKVYACEVTHQGLSSPVTKSFNRGEC | – | – | – | 0.72 | 112 % of control He Ab (=100) | 156 % of control He Ab (=100) |
| GpH7-A5/GpH7-B3 variant H268_13S/GpL16-k0 (antibody, human IgG1, kappa, heterodimerized IgG1, mutation in one H chain only; also called He Ab) heavy 1: not shown heavy 2: not shown light: DIVMTQSPLSLPVTPGEPASISCQASESLVHSNRNTYLHWYLQKPGQSPQLLIYKVSNRFSGVPDRFSGSGSGTDFTLKISRVEAEDVGVYYCSQNTHVPPTFGQGTKVEIERTVAAPSVFIFPPSDEQLKSGTASVVCLLNNFYPREAKVQWKVDNALQSGNSQESVTEQDSKDSTYSLSSTLTLSKADYEKHKVYACEVTHQGLSSPVTKSFNRGEC | – | – | – | 0.7 | 112 % of control He Ab (=100) | 160 % of control He Ab (=100) |
| GpH7-A5/GpH7-B3 variant L235_18N/GpL16-k0 (antibody, human IgG1, kappa, He Ab: alteration in one H chain only; also called He Ab) heavy 1: not shown heavy 2: not shown light: DIVMTQSPLSLPVTPGEPASISCQASESLVHSNRNTYLHWYLQKPGQSPQLLIYKVSNRFSGVPDRFSGSGSGTDFTLKISRVEAEDVGVYYCSQNTHVPPTFGQGTKVEIERTVAAPSVFIFPPSDEQLKSGTASVVCLLNNFYPREAKVQWKVDNALQSGNSQESVTEQDSKDSTYSLSSTLTLSKADYEKHKVYACEVTHQGLSSPVTKSFNRGEC | 1.23 | 67.3 | 54.9 | – | – | – |

More lines, now with the values ahead:

| He_3a/2b (IIIa/IIb) [1] [ratio] | He/Con_3a [2] [control=100] | He/Con_2b [3] [control=100] | He_2aH/2b (IIaH/IIb) (FcγRIIa H [4]) [ratio] | He/Con_2aH (FcγRIIa H [5]) | He/Con_2b (FcγRIIb) | Binder |
| --- | --- | --- | --- | --- | --- | --- |
| 1.44 | 69.6 | 48.2 | – | – | – | GpH7-A5/GpH7-B3 variant L235_13S/GpL16-k0 (antibody, human IgG1, kappa, He Ab: alteration in one H chain only; also called He Ab) heavy 1: not shown heavy 2: not shown light: DIVMTQSPLSLPVTPGEPASISCQASESLVHSNRNTYLHWYLQKPGQSPQLLIYKVSNRFSGVPDRFSGSGSGTDFTLKISRVEAEDVGVYYCSQNTHVPPTFGQGTKVEIERTVAAPSVFIFPPSDEQLKSGTASVVCLLNNFYPREAKVQWKVDNALQSGNSQESVTEQDSKDSTYSLSSTLTLSKADYEKHKVYACEVTHQGLSSPVTKSFNRGEC |
| – | – | – | 0.63 | 97 % of control He Ab (=100) | 155 % of control He Ab (=100) | GpH7-A5/GpH7-B3 variant K326_04F/GpL16-k0 (antibody, human IgG1, kappa, heterodimerized IgG1, mutation in one H chain only; also called He Ab) heavy 1: not shown heavy 2: not shown light: DIVMTQSPLSLPVTPGEPASISCQASESLVHSNRNTYLHWYLQKPGQSPQLLIYKVSNRFSGVPDRFSGSGSGTDFTLKISRVEAEDVGVYYCSQNTHVPPTFGQGTKVEIERTVAAPSVFIFPPSDEQLKSGTASVVCLLNNFYPREAKVQWKVDNALQSGNSQESVTEQDSKDSTYSLSSTLTLSKADYEKHKVYACEVTHQGLSSPVTKSFNRGEC |
| – | – | – | 0.76 | 106 % of control He Ab (=100) | 139 % of control He Ab (=100) | GpH7-A5/GpH7-B3 variant K326_02A/GpL16-k0 (antibody, human IgG1, kappa, heterodimerized IgG1, mutation in one H chain only; also called He Ab) heavy 1: not shown heavy 2: not shown light: DIVMTQSPLSLPVTPGEPASISCQASESLVHSNRNTYLHWYLQKPGQSPQLLIYKVSNRFSGVPDRFSGSGSGTDFTLKISRVEAEDVGVYYCSQNTHVPPTFGQGTKVEIERTVAAPSVFIFPPSDEQLKSGTASVVCLLNNFYPREAKVQWKVDNALQSGNSQESVTEQDSKDSTYSLSSTLTLSKADYEKHKVYACEVTHQGLSSPVTKSFNRGEC |
